Data: publication doi:10.1101/2025.04.27.650876, “Embryonic stem cell factors DPPA2/4 facilitate a unique chromatin state in non-small cell lung cancer” (bioRxiv, 2025)

Molecular target: T1, Developmental Pluripotency Associated 2 (DPPA2), endogenous (human (endogenous in NCI-H661), UniProt Q7Z7J5 1-298)
T1 construct: DPPA2, human, endogenous in NCI-H661 non-small cell lung cancer cells; source: endogenous, NCI-H661 whole cell lysate
T1 sequence (looked up): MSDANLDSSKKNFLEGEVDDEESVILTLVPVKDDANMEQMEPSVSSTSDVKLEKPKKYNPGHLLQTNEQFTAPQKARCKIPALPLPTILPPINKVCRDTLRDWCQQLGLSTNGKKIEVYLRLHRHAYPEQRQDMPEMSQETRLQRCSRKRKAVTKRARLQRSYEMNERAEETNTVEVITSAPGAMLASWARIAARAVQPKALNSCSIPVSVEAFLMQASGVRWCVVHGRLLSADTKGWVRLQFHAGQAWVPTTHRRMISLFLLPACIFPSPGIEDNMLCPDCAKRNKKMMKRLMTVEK
Experiment: affinity purification with mass spectrometry; endogenous DPPA2 or DPPA4 immunoprecipitated from NCI-H661 whole cell lysates (n=4 per condition); enrichment against species matched IgG IP by label-free quantitation; relative iBAQ for stoichiometry
Conditions: partners not purified

B1: Developmental Pluripotency Associated 4 (DPPA4), endogenous (natural protein, human (endogenous in NCI-H661), UniProt Q7L190 1-304, looked up)
chain: MLRGSASSTSMEKAKGKEWTSTEKSREEDQQASNQPNSIALPGTSAKRTKEKMSIKGSKVLCPKKKAEHTDNPRPQKKIPIPPLPSKLPPVNLIHRDILRAWCQQLKLSSKGQKLDAYKRLCAFAYPNQKDFPSTAKEAKIRKSLQKKLKVEKGETSLQSSETHPPEVALPPVGEPPALENSTALLEGVNTVVVTTSAPEALLASWARISARARTPEAVESPQEASGVRWCVVHGKSLPADTDGWVHLQFHAGQAWVPEKQEGRVSALFLLPASNFPPPHLEDNMLCPKCVHRNKVLIKSLQWE
notes: DPPA4, human, endogenous in NCI-H661 non-small cell lung cancer cells; source: endogenous, NCI-H661 whole cell lysate
- ratio between DPPA2 and DPPA4 (relative iBAQ) in the DPPA2-IP: > 1
